# Results published in patent US20240287177A1 (Merck KGaA, published 2024).
# Residue numbers refer to the chain shown, from its start.
# T1: recombinant human NKp30 extracellular domain, his-tagged (human, UniProt O14931 19-135)
# T1 construct: BLI used human NKp30 bought from Abcam (his-tagged ECD); also called rh NKp30 ECD; human NKp30 (Abcam); not shown: his tag
# T1 sequence: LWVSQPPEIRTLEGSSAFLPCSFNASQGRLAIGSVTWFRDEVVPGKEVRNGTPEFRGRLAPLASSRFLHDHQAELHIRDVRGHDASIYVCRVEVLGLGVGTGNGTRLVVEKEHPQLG
# B1: VHH9 SEEDbody eff- (bispecific antibody, part only; not given: silenced SEED Fc and cetuximab Fab, V domains shown, not shown: another chain or arm of the molecule; a dimerising Fc or GST)
# VHH: DVQLQESGGGLVQAGGSLRLSCAASGRGGASYAMGWFRQAPGKEREFVAAISWTGDTTYNVDSVKGRFTISSDNAKNPVYLDMSSLKPEDTAVYYCAAAHWTRVVAKGAMADEKKYEYWGQGTQVTVSS
# B2: VHH14 SEEDbody eff- (bispecific antibody, part only; not given: silenced SEED Fc and cetuximab Fab, V domains shown, not shown: another chain or arm of the molecule; a dimerising Fc or GST; small tags and cut ends)
# VHH: DVQLQESGGGLVQPGGSLRLSCEASGVTFNFYSMTWYRQAPGKERELVADITSEGRTEYAHSVKGRFIISRDDFGTMVYLQMNSLKPEDTAVYYCYTGGSWGQGTQVTVSS
# B3: VHH5 SEEDbody eff- (bispecific antibody, part only; not given: silenced SEED Fc and cetuximab Fab, V domains shown, not shown: another chain or arm of the molecule; a dimerising Fc or GST; small tags and cut ends)
# VHH: DVQLQESGGGLVQPGESLRLSCLVSGVTYHFYDITWFRQAPGLEREGVSCISYASGSTKFADSVKGRFTISRDNAKNAVYLQMNSLKPEDTAVYFCATQGSGSCSDFMSADSVLSWGQGTQVTVSS
# B4: VHH4 SEEDbody eff- (bispecific antibody, part only; not given: silenced SEED Fc and cetuximab Fab, V domains shown, not shown: another chain or arm of the molecule; a dimerising Fc or GST; small tags and cut ends)
# VHH: B3 VHH with T98M
# B5: VHH3 SEEDbody eff- (bispecific antibody, part only; not given: silenced SEED Fc and cetuximab Fab, V domains shown, not shown: another chain or arm of the molecule; a dimerising Fc or GST; small tags and cut ends)
# VHH: B3 VHH with R19K, S57T, Q82E, D111G
# B6: VHH6 SEEDbody eff- (bispecific antibody, part only; not given: silenced SEED Fc and cetuximab Fab, V domains shown, not shown: another chain or arm of the molecule; a dimerising Fc or GST; small tags and cut ends)
# VHH: DVQLQESGGGLVQTGGSLRLSCAASGLPFSKYAIAWFRQAPGKESEFLVVVSWSGDKFYQDNMKGRCTISRDNAKNTAYLQINSLQPEDTAVYYCAASGSYPVTDRYFYNFWGQGTQVTVSS
# B7: VHH11 SEEDbody eff- (bispecific antibody, part only; not given: silenced SEED Fc and cetuximab Fab, V domains shown, not shown: another chain or arm of the molecule; a dimerising Fc or GST; small tags and cut ends)
# VHH: DVQLQESGGGLVQAGGSLRLSCAASGRTFSSDFMGWFRQAPGKEREFVAAIHWSGGSTSYADSVKGRFTISRDNAKDTVYLLMNSLKLEDTAVYYCAAEIRWLTTGWANLGSWGQGTQVTVSS
# B8: VHH13 SEEDbody eff- (bispecific antibody, part only; not given: silenced SEED Fc and cetuximab Fab, V domains shown, not shown: another chain or arm of the molecule; a dimerising Fc or GST; small tags and cut ends)
# VHH: B7 VHH with V12A, A14P, S17P, S30T, T58R, L103Q, T105A, A108V
# B9: VHH16 SEEDbody eff- (bispecific antibody, part only; not given: silenced SEED Fc and cetuximab Fab, V domains shown, not shown: another chain or arm of the molecule; a dimerising Fc or GST; small tags and cut ends)
# VHH: DVQLQESGGGLVQPGGSLRLSCTASGSIFSSLTMAWWRQAPGKQRELVAGITTDGSTDYADSVKGRFTISRDNAKNTVYLQMDSLKPEDTAVYYCNKSPYYDPTDYDSWGQGTQVTVSS
# B10: VHH10 SEEDbody eff- (bispecific antibody, part only; not given: silenced SEED Fc and cetuximab Fab, V domains shown, not shown: another chain or arm of the molecule; a dimerising Fc or GST; small tags and cut ends)
# VHH: DVQLQESGGGSVQAGGSLRLSCAASGRTFSSNFMGWFRQAPNKDREFVAAIHWSGGSRAYADSVKGRFTISRDNTKDTVYLLVNSLKLEDTAVYYCAAEISWQTTGWTNLGSWGQGTQVTVSS
# B11: VHH12 SEEDbody eff- (bispecific antibody, part only; not given: silenced SEED Fc and cetuximab Fab, V domains shown, not shown: another chain or arm of the molecule; a dimerising Fc or GST; small tags and cut ends)
# VHH: B7 VHH with T58R, L103Q
# B12: VHH7 SEEDbody eff- (bispecific antibody, part only; not given: silenced SEED Fc and cetuximab Fab, V domains shown, not shown: another chain or arm of the molecule; a dimerising Fc or GST; small tags and cut ends)
# VHH: DVQLQESGGGLAQPGGSLRLSCAASGFTFSSYDMGWYRQVPGKECELVAAIFSAGGSTIYADSVKGRFTISRDNAKNTVFLQMNSLKPEDTAVYYCNKAPPFTTIQPTCVMIDTQLGAWGQGTQVTVSS
# B13: VHH8 SEEDbody eff- (bispecific antibody, part only; not given: silenced SEED Fc and cetuximab Fab, V domains shown, not shown: another chain or arm of the molecule; a dimerising Fc or GST; small tags and cut ends)
# VHH: B12 VHH with V40A, G55D, R72S, T108M
# B14: VHH15 SEEDbody eff- (bispecific antibody, part only; not given: silenced SEED Fc and cetuximab Fab, V domains shown, not shown: another chain or arm of the molecule; a dimerising Fc or GST; small tags and cut ends)
# VHH: DVQLQESGGGLVQAGGSLRLSCAVSGSTFRLNVMGWYRQAPGKLRDLVAGITADGGVTNYADSVKGRFIISRDNAKNTVYLQMNSLKPEDTAIYYCNTAPANWGSWGQGTQVTVSS
# B15: VHH1 (parental, as tested in Example 8) (VHH)
# VHH: DVQLQESGGGLVQPGGSLRLSCATSGFTLDDYTIGWVRQAPGKEHEGVSCFSPSDGTTYYADSVKGRFTFSRDNAKNTVYLQMNSLKPEDTAVYYCAASFADGSSWCYDYWGQGTQVTVSS
# notes: expressed and measured by BLI 'as described in Experiment 1' (there: bispecific SEEDbody on anti-human Fc sensors)
# B16: VHH1.4 (humanized) (VHH)
# VHH: B15 VHH with D1E, Q5V, L11V, E44G, H45L, K87R, P88A, Q116L
# notes: as for B15
# B17: VHH1.2 (humanized) (VHH)
# VHH: B15 VHH with D1E, Q5V, L11V, V79L, K87R, P88A, Q116L
# notes: as for B15
# B18: VHH1.1 (humanized) (VHH)
# VHH: B15 VHH with D1E, Q5V, L11V, K87R, P88A, Q116L
# notes: as for B15
# B19: VHH1.3 (humanized) (VHH)
# VHH: B15 VHH with D1E, Q5V, L11V, T24A, F70I, V79L, K87R, P88A, Q116L
# notes: as for B15
# B20: VHH2 (parental, as tested in Example 9) (VHH)
# VHH: DVQLQESGGGLVQAGGSLRLSCAVSGQTWTNYHIGWFRQAPGKARESVASIEWGGRGTYATDSVKGRFTISRDNAKNTVYLQMNSLKPEDTAVYYCAAQSSSRSPLESNYDYWGQGTQVTVSS
# notes: as for B15
# B21: VHH2.8 (humanized) (VHH)
# VHH: EVQLVESGGGVVQPGGSLRLSCAVSGQTWTNYHIGWFRQAPGKGLEWVASIEWGGRGTYATDSVKGRFTISRDNAKNTLYLQMNSLRAEDTAVYYCAAQSSSRSPLESNYDYWGQGTLVTVSS
# notes: as for B15
# B22: VHH2.1 (humanized) (VHH)
# VHH: B21 VHH with P14A, G44A, L45R, W47S, L79V
# notes: as for B15
# B23: VHH2.11 (humanized) (VHH)
# VHH: B21 VHH with V24A, W47S, L79V
# notes: as for B15
# B24: VHH2.7 (humanized) (VHH)
# VHH: B21 VHH with W47S
# notes: as for B15
# B25: VHH2.6 (humanized) (VHH)
# VHH: B21 VHH with F37V, W47S, L79V
# notes: as for B15
# B26: VHH2.12 (humanized) (VHH)
# VHH: B21 VHH with V24A, L79V
# notes: as for B15
# B27: VHH2.15 (humanized) (VHH)
# VHH: B21 VHH with V24A, W47S
# notes: as for B15
# B28: VHH2.16 (humanized) (VHH)
# VHH: B21 VHH with V24A
# notes: as for B15
# B29: VHH2.2 (humanized) (VHH)
# VHH: B21 VHH with G44A, L45R, W47S, L79V
# notes: as for B15
# B30: VHH2.3 (humanized) (VHH)
# VHH: B21 VHH with G44A, L45R, W47S
# notes: as for B15
# B31: VHH2.5 (humanized) (VHH)
# VHH: B21 VHH with W47S, L79V
# notes: as for B15
# Biological target: recombinant human NKp30 extracellular domain, his-tagged (human) (UniProt O14931)
# Experiment: BLI, SEEDbody on anti-human Fc sensors, soluble NKp30, 1:1 fit
Binder,Kd,koff,kon
B1,4.99 nM,0.00187 s⁻¹,376000 M⁻¹ s⁻¹
B2,0.31 nM,0.000144 s⁻¹,464000 M⁻¹ s⁻¹
B3,0.289 nM,0.000186 s⁻¹,643000 M⁻¹ s⁻¹
B4,2.57 nM,0.000218 s⁻¹,84800 M⁻¹ s⁻¹
B5,0.281 nM,0.00017 s⁻¹,604000 M⁻¹ s⁻¹
B6,292 nM,0.129 s⁻¹,442000 M⁻¹ s⁻¹
B7,1.02 nM,0.000415 s⁻¹,405000 M⁻¹ s⁻¹
B8,0.211 nM,0.000162 s⁻¹,766000 M⁻¹ s⁻¹
B9,0.139 nM,9.28e-05 s⁻¹,666000 M⁻¹ s⁻¹
B10,0.253 nM,8.75e-05 s⁻¹,346000 M⁻¹ s⁻¹
B11,0.982 nM,0.000898 s⁻¹,914000 M⁻¹ s⁻¹
B12,52.4 nM,0.00352 s⁻¹,67200 M⁻¹ s⁻¹
B13,0.322 nM,0.000134 s⁻¹,416000 M⁻¹ s⁻¹
B14,< 0.001 nM,< 1e-07 s⁻¹,440000 M⁻¹ s⁻¹

# Biological target: T1, recombinant human NKp30 extracellular …
# Experiment: BLI as in Example 1
row,Binder,Kd
1,B15,0.248 nM
2,B16,0.547 nM
3,B17,0.293 nM
4,B18,0.275 nM
5,B19,1.07 nM

# Biological target: T1, recombinant human NKp30 extracellular …
# Experiment: BLI as in Example 1
# Remark: another data set of the same source
row,Binder,Kd
1,B20,2.88 nM
2,B21,6.61 nM
3,B22,2.91 nM
4,B23,4.7 nM
5,B24,9.76 nM
6,B25,27.6 nM
7,B26,4.24 nM
8,B27,12.3 nM
9,B28,4.71 nM
10,B29,2.1 nM
11,B30,9.97 nM
12,B31,2.92 nM

# Biological target: T1, recombinant human NKp30 extracellular …
# Experiment: BLI as in Example 1, maximum binding capacity
row,Binder,Emax (nm)
1,B15,0.13 nm
2,B16,0.12 nm
3,B17,0.12 nm
4,B18,0.13 nm
5,B19,0.12 nm

# Biological target: T1, recombinant human NKp30 extracellular …
# Experiment: BLI as in Example 1, maximum binding capacity
# Remark: another data set of the same source
row,Binder,Emax (nm)
1,B20,0.17 nm
2,B21,0.1 nm
3,B22,0.18 nm
4,B23,0.16 nm
5,B24,0.1 nm
6,B25,0.07 nm
7,B26,0.14 nm
8,B27,0.07 nm
9,B28,0.11 nm
10,B29,0.15 nm
11,B30,0.13 nm
12,B31,0.11 nm

# Biological target: NKp30 on human NK cells (human) (UniProt O14931)
# Experiment: cell-based or functional assay
Binder,"EC50 (nM), MNC based killing of A431 cells, E:T 80:1","Max. Killing (% Lysis), MNC based killing of A431 cells, E:T 80:1","Max. IFNγ release (pg/ml), NK cells with A431 cells","Max. TNFα release (pg/ml), NK cells with A431 cells"
B1,0.0161 nM,53 % Lysis,–,–
B2,0.00144 nM,51 % Lysis,–,–
B3,0.00286 nM,56 % Lysis,635 pg/mL,119 pg/mL
B4,0.00592 nM,55 % Lysis,560 pg/mL,129 pg/mL
B5,0.00284 nM,53 % Lysis,–,–
B6,1.43 nM,42 % Lysis,–,–
B7,0.0111 nM,50 % Lysis,–,–
B8,0.00241 nM,51 % Lysis,–,–
B9,0.00128 nM,50 % Lysis,515 pg/mL,114 pg/mL
B10,0.0146 nM,51 % Lysis,–,–
B11,0.00207 nM,49 % Lysis,–,–
B12,0.0433 nM,49 % Lysis,–,–
B13,0.00899 nM,50 % Lysis,595 pg/mL,109 pg/mL
B14,0.0013 nM,50 % Lysis,–,–
